Assay results reported in the nanobody polyreactivity screen of Harvey et al. (2022).

Assay: yeast display, Sf9 membrane polyspecificity reagent, FACS + sequencing; frameworks hold sequencing errors
Method in brief: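 Galactose-induced (36–48 hours) yeast carrying a synthetic nanobody display library were exposed to 10% biotinylated, detergent-solubilized Sf9 membrane reagent at 4 °C for 1 hour. FACS followed streptavidin microbead enrichment, using low and high (top ~1%) gates for expression (anti-HA) and reagent binding (streptavidin). Colony PCR, MiSeq 2 × 250 sequencing and CDR-length filtering followed. Labels for polyreactivity reflect the gate of origin.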

Row | Sequence | polyreactivity (PSR sort gate)
1 | QVELVESGGGLVQAGGSLRLSCAASGGTFYRYAMGWYRQAPGKEREFVASITQRGGRTYYADSVMGRFTISRDNAKNTVYLQMNSLIPEDTACYYCAAQGYKYWHGDGSDYWGQGSQVTVSS | high polyreactivity
2 | QVELVESGGGLVQAGGSLRLSCAASGRIFFYNGMGWYRQAPGKERELVAAINRSGGSTYYADSVKGRFTISRDNAKNTVYLQMNSLKPEDTAVYYCNAASFTVPMDYWGHGTQVTVSS | low polyreactivity
3 | QVELVESGGGLVQAGGSLRLSCAASGRISYLYTMGWYRQAPGKERELFAASRWRDGSTYYADSVKGRFTISRDNAKTTVYLQMNSLKPEDTAVYFCGATPVGFYWYDYWGQGTQVTVSS | low polyreactivity
4 | QVELVESGGGLVQAGGSLRLSCAASGSTFYYNAMGWYRQGPGTERELVAASTFTGGSTYADSVKGRFTISRDNAKNTVYLQMTSLKPEDTAVYYCAATIQRHDYLGTGYDYWGQGTQVTVSS | low polyreactivity
5 | QVELVESGGGLVQAGRSLRLSCAASGRILVSYAMGWYRQAPGKERELVAGITSGGDSTYYADSVKGRFTISRDNAKNTVYLQMNSLKPEDTAVYYCDADRDSYRGRKNVRERYTYWGQGTQVTVSS | high polyreactivity
6 | QVELVESGGGLVQPGGSLRLSCAASGSTFYYYAMGWYRQAPGKERELVATISSGSSTNYADSVKGRFTISRDNAKNTVYLQMNSLKPEDTAVYYCAADRWYITLSIDATISYEYWGQGTQVTVSS | low polyreactivity
7 | QVEVVESGGGLVQAGGSLRLSCAASGRNFRFNAMGWYRQAPGKERELVAAISFRGGSTYYADTVKGRFTISRDNAKNTVYGQINSLKPEDPAVYYCAARARTGTYRDMYYWGQGTQVTVSS | high polyreactivity
8 | QVHHEESGGGLVQAGGSLRLSCAASGGIFYLNDMGWYRQAPGKERELVAAITGTGGNTYYADSVKGRFTISRDNAKNTVYLQMNSLKPEDTAVYYCAAQHYWVTSYLSSYDYWGQGTQVTVSS | low polyreactivity
9 | QVHHVESGGGLVQAGGNLRLSCQASGSTFDENDMGWYRQPQGKERELVAVISICTSTNYADSVKGRFTISRDNAKNTVYLQMNSLKPEDTAVYYFDAFVPGSYLDAIVGNAFNYWGQGTQVTVSS | low polyreactivity
10 | QVHIVESGGGLVQAGGSLRLICAASGRTFNGYVMGWYRQAPGKEREFVAVINWSGGNTYYADSVKGRFTISRDNAKNTVYLQMNSLKPEDTAVYYCAARRVRSYAYDYWGQGTQVTVSS | high polyreactivity
11 | QVHIVESGGGLVQAGGSLRLSCADSGSIFLSNVMGSYRQAPGKERELVDDITRSGGSTYYADSVKGRFTISRDNAKNTVYLQMNSLKPEDTAVYYCNAYEYLSAGYDYWGQGTQVTVSS | low polyreactivity
12 | QVHLEESGGGLVQEGGSHRLSCAASGGTFFSYDMGWYRQAPGKERELVAAISATGGSTYYADSVKGRFTISRDNAKNTVYLQMNSLKPEDTAVYYCNAYQESGTYLRMDYWGQGTQVTVSS | low polyreactivity
13 | QVHLLESGGGLFQPGGSLRLSCAASGRIFTSYAMGWYRPAPGKESELVAAISWGGGRTYYADSVKGRYTISRDNAKNTVYLQMNSVKPEDTAVYYCAALIADRDSPYDYWGQGTQVTVSS | high polyreactivity
14 | QVHLLESGGGLVQAGGSLRLSCAAPGSTLFNYDMGWSRQAPGKERELLAAITTSGDSTYYADSVKGRFTISRDNAKNTVYFQMNSLKPEDTAVYYCNADVFKTVFYIDRYYYWGQGTKVTVSS | low polyreactivity
15 | QVHLQESGDGLLQAVGSLRLSCAASGYISGYYYRGWYRQAPGKERELVAGIDAFGSSTNYADCVKGRFTISRDNSTNTVYLQMNSLKPEDTAVYYWAARPDGDRLFSYWGQGTQVTVSS | low polyreactivity
16 | QVHLQESGGGLVQAGGSLRLSCAASGTISDSGLMGWYRQAPGKERELVAGISSGGINNYADSVKGRFTISRDNAKYTEYLQMNSLKPEDTAVYWGQGTQVTLSS | low polyreactivity
17 | QVHLQESGGGLVQAGGSLRLSCAASRTIFRISDMGSYRQAPGKEREFVAAITYGANTYYADSGKGRFTISRDNAKNSVYLQMNSLKADDTAVYYCAVPPVKETILDYWGQGTQVNVSS | low polyreactivity
18 | QVHLQESGGVQAGGSLPQSCAASGNISRSDVMGWYRQAPPKERELVATINNGTITYYADSVKGRFTISRDHAKNTVYLHMNSLKQEDTAVQYCAVVQSDTDSLYYWGQGTQVTVSS | low polyreactivity
19 | QVHLQESGSGLVQAGGSLRLSCAASGAIFPAYLMGWYRQAPGKERELVAGSSYGSITYCADSVKGRFNISRDNAKNTVYLQMNSLKPEDTAVYYCAVLRPGGDEYYYWGQGTKVTVSS | low polyreactivity
20 | QVHLVDSGGGLVQAGGSLRLSCAASGSIIVFYAMGWYRQAPGKERELVAAITDSGSTNYADSVKGRFTISRDNAKNTVYLQMNSLKPEDTAVYYCDWSYYVLRRYRVARYDSGGQGTQVTVSS | low polyreactivity
21 | QVHLVDSGGGLVQAGGSLRLSCAATGFTFWYYAMGWYRQAPWKERELVATITWNGGSTYYADSVKGRFTISRDNAKNTVYIQMNSLQPEDTAVYYCNKSYISSSSWQYYYWGQGTQVTVSS | low polyreactivity
22 | QVHLVDSGGGLVQAGGSLRLSSADSGSTFAANAIGWYRQAPGKERELVAAITSSGGSTYYADSVKGRFTISRDNATNTVYLQKNSLKPEDTAVYYCNKDMERYVRIYDSWGQGSQVTVSS | low polyreactivity

Row | Sequence | polyreactivity (PSR sort gate)
23 | QVHLVDSGGGLVQAGGSLRLTCAASGSSFWAYVMGWYRQAPGKERELVAAISKSGVRTHYADSVKGRFTISRDNAKTTFYLQMNSLKPEDTAVYYFAAVGFGNLDDYWGQGTQVTVSS | high polyreactivity
24 | QVHLVDSRGVLVQAGGSLRLSCAASGRTFFHYAMGWYRQAPGKERELVAAITYRGTSTYYADSVKARFTISRDYAKNTVYLQMNSLKPEATAVYYCNAYTTRGGWSYRGDSWGQGTQVTVSS | high polyreactivity
25 | QVHLVEAGGGLVQAGGSLRLSCAASACTFWPYARGLSSQAPGQDTELVAAMTSSGSTNYADSVKGRFTITRDNAKNTDYLQMNSLKPEDTAVNYCAADHRPSRFQSSVHLYYYWGQGTQVTVSS | low polyreactivity
26 | QVHLVESAGGLVQAGGSLRLSSDSSGLIFYRYAMGWYRQAPGKERELVAAITSRSGRTYYADSVKGRFTFSRDNAKNTVYLQMNSLKPEDTAVYYCNAEWRSRYDYWGQGNQVTVSS | high polyreactivity
27 | QVHLVESCGGLVQAGGSLRLSCAASGFTFYTYTMGWYRQAPGKERELVAVISRSGGSTYYADSVKGRFTISRDNAKNTVYLQMNSLKPEDTAVYYCNAGYWRFIDSYDYWGQGTQVTVSS | high polyreactivity
28 | QVHLVESCGGLVQAGGSLRLSCAASGSTFTYNVMGSYRQAPGKERELVAAISWSGGSTFYADSVKGRFTISRDNAKNTVYLQMNSLKPEDTAVYYCNKDHLVYPSEFYYWGQGTQVTVSS | low polyreactivity
29 | QVHLVESCGGLVQAGGSLRLSCAASGSTIETYAMGWNRQAPGKDREMVATISLSGGRTYYADSVKGRFTISRDYAKNTVYLQMNSLKPEDTEVYYCNADGYGNVGGGDSWGQGTQVTVSS | low polyreactivity
30 | QVHLVESGAGLDQAGGSLSLSCAASGRNFSFNAMGSYRQAPGKVRELVASIRSGGSTNYADSVKGRFTISSDNAKNTVYLQMNSLKPEDTAVYYCAKRSTYWGWSSYGMDHWGQGTQVTVSS | high polyreactivity
31 | QVHLVESGAGLVQAGGSLRLSCAASGRVFYYYAMGWYRQAPGKEREFVATISWSGVRTYYADSVKGRFTISRDNAKNTVYLQMNSLKPEDTAVYYCNADYYSPKFPSGMNYWGQGTQVTVSS | high polyreactivity
32 | QVHLVESGAGLVQAGGSLRLSCAASGSTFAPNAMGWYRQAPGKERELVAAISSGGDSTNYADSVKGRFTISRDNAKNTVYLQMNSLKPEDTEVYYCAHGYWFVAYDYWGEGTQVTVSS | low polyreactivity
33 | QVHLVESGAGLVQAGGSLSLSCAASVFTLHVYALGWYRQAPGKERELVAALSTGGNTNYADSVKGRFTISRDNAKNTVYLQMHSLKPEDTAVYYCAASNRGATRRQVNYWGQGTQVTVSS | high polyreactivity
34 | QVHLVESGGALVQAGGSLRLSCAASGFIFRKYAMGWYRQAPGKERELVAAISYRGASTYYADSVKGRFTISRDNAKNTVYLQMNSLKPEDTAVYYCADRYSNPWARVSGYDYWGQGTQVTVSS | high polyreactivity
35 | QVHLVESGGGIVQAGGSHRLSCAATGRIFAPYAMGWYRQAPGKERELVAAISWSDVSTDYADSVKGRFTISRDNAKNTVYLQMNSLKPEDTAVSYCAAAYPGYRGWYYYWGQGTQVTVSS | high polyreactivity
36 | QVHLVESGGGIVQAGGSLRLSCAASGFTFQYNAMGWYRQAPGKERELVAAISYSGTSTYYADSVKGRFTISRDNPKNTVSLQKNSLKPEETAVYYCAVPRLSGSPSAYGYYYWGQGTQVTVSS | high polyreactivity
37 | QVHLVESGGGIVQAGGSLRLSCAASGFTFTQYGMGWYRQAPGKEREFVATIRFSGDNTYYADSVKGRFTISRDNAKNTVYLQMNSLNPEDTAVYYCNADNRAFFVYPVSKRYDYWGQGTQVTVSS | low polyreactivity
38 | QVHLVESGGGIVQAGGSLRLSCAASGIIFMDNAMGWYRQAPGKERELVAAITTGGITYYADSVKGRFTISRDNAKNTVYLQMNSLKPEDTAVYYCAADNEWPRYDYWGQGTQVTVSS | low polyreactivity
39 | QVHLVESGGGIVQAGGSLRLSCAASGSTFGYYAMGWYRQAPGKERELVAAITTRGTRTYADSVKGRFTISRDNAKNTVYLQMNSLKPEDTAVYYCNAYEWGDFVLYTTDYDYWGQGTHVTVSS | high polyreactivity
40 | QVHLVESGGGLDQAGGSLRLSCAASGRTFKSYTMGWYRQAPGKEREFVAAISSRGGNTYYADSVKGRFTISRDNAKNTVYLQMNSLKPEDTAVYYCAAESSYWSFPTYDYWGQGTQVTVSS | high polyreactivity
41 | QVHLVESGGGLDQAGGSLRLSSAASGFTFQKYAMGWYRQAPGTERELVAAISSSGGRTYYADSLNGRFTISRDNAKITVYLQMNSLKPEDTAVYYCAVRGSYRGWYDYWGQGTQVTVSS | high polyreactivity
42 | QVHLVESGGGLLQAGGSLRLSCAASGRTSDSNAMGWYRQAPGKETELVAAITISGVSTYYADTVKGRFTISRDNAKNTVYLQMNSLKPEDTAVYYCAKDPTFSSSFAVSLGFDSWGQGTQVTVSS | low polyreactivity
43 | QVHLVESGGGLVEAGGSLRISCAAYGFIFGYNAMGWYRQAPGKERELVARINSGGNTNYADSVKGRFTISRDNAKNTVYLQMNSLKPEDTAVYYCARDASNRYDYWGQGNQVTVSS | low polyreactivity
